{"source": "patent US20230399416A1", "about": "(MIRIMGENE, published 2023)", "binders": {"B1": {"name": "GKB101 (antibody, IgG1, V domains shown)", "VH": "EVQLLESGGGLVQPGGSLRLSCAASGFTFSSYDMSWVRQAPGKGLEWVSAISSGGSSIYYADSVKGRFTISRDNSKNTLYLQMNSLRAEDTAVYYCARDVAWDMLGDFDYWGQGTLVTVSS", "VL": "QSVLTQPPSASGTPGQRVTISCTGSSSNIGSNYVYWYQQLPGTAPKLLIYANSHRPSGVPDRFSGSKSGTSASLAISGLRSEDEADYYCGAWDDSLSAYVFGGGTKLTVTV", "notes": "IgG1 made from the selected scFv with the constant regions of herceptin expression vectors, expressed in Expi293F cells; Joined as printed they may lack a few residues at the junctions (VL/CL, CH2/CH3) and at the C-terminus of CH3; also called WARS1-specific antibody; anti-WARS1 antibody"}}, "key": {"[1]": {"target": "T1, human WARS1 recombinant protein (human, UniProt P23381 1-471, limits assumed)", "T1 construct": "In the immunoblot the endogenous WARS1 of THP-1 human monocytes was also detected; also called human recombinant protein; tryptophanyl-tRNA synthetase 1, cytoplasmic", "T1 sequence (looked up)": "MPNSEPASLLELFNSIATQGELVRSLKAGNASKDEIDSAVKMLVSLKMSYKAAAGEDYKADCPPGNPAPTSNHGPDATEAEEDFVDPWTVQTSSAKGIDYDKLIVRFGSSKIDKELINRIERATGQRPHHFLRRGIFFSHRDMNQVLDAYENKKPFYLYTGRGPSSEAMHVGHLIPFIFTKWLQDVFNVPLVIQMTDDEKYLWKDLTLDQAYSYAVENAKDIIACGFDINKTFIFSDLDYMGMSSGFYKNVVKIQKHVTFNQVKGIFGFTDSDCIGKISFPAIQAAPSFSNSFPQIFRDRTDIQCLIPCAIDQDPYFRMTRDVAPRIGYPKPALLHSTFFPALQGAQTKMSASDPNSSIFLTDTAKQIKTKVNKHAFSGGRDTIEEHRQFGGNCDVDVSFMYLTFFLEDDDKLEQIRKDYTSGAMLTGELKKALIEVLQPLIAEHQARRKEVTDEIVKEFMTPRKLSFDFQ", "assay": "SPR, Biacore T200, CM5 chip, serially diluted GKB101 injected", "method": "(§1) 1) SPR: Binding ability was measured using Series S Sensor CM5 Chip (GE Healthcare Life Sciences) and GE Bioacore T200. A HBS-EP buffer (GE Healthcare Life Sciences) was used. After injecting serially diluted GKB101 or buffer for 1-10 minutes at a flow rate of 30 μL/min, the analyte was washed for 20 minutes."}, "[2]": {"target": "T2, mouse WARS1 recombinant protein (mouse, UniProt P32921 1-481, limits assumed)", "T2 construct": "In the immunoblot the endogenous WARS1 of J774.1A mouse macrophages was also detected; also called mouse recombinant protein", "T2 sequence (looked up)": "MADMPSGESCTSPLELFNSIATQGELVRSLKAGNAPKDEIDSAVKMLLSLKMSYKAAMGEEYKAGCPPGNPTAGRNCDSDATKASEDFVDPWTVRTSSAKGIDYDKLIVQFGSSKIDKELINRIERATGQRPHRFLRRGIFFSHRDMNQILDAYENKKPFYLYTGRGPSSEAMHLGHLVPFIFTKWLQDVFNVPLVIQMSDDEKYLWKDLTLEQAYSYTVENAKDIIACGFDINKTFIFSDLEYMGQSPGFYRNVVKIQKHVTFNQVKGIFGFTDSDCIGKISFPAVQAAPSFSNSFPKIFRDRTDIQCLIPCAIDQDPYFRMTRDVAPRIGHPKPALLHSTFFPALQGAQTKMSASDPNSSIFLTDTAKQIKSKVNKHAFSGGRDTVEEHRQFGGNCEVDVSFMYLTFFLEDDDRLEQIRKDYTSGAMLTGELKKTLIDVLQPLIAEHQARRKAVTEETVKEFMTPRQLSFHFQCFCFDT", "assay": "SPR, Biacore T200, CM5 chip, serially diluted GKB101 injected", "method": "as §1"}}, "data": [{"binder": "B1", "values": [{"measurement": "Kd", "setting": "[1]", "result": "~0.2", "unit": "nM"}, {"measurement": "Kd", "setting": "[2]", "result": "~3.76", "unit": "nM"}]}]}
